Results published in article PMC3880865.
Read-outs that look alike come from different tables or passages of the source.

How the values were obtained:
GST-CBL47–435 WT (human) [1] = biological target: GST-CBL47–435 WT (human) (UniProt P22681); assay: SPR
[2] = biological target: GST-CBL47–435 Y368F pY371 (human) (UniProt P22681); assay: SPR
GST-CBL47–435 WT (human) [3] = biological target: GST-CBL47–435 WT (human) (UniProt P22681); assay: SPR; remark: listed apart in the source
[4] = biological target: GST-CBL47–435 Y371F (human) (UniProt P22681); assay: SPR
[5] = biological target: GST-CBL47–435 Y368F (human) (UniProt P22681); assay: SPR
[6] = biological target: GST-CBL47–435 M222E (human) (UniProt P22681); assay: SPR
CBL47–435 pY371 (human) = CBL47–435 pY371 (human) (UniProt P22681)
Sequence of CBL47–435 pY371 (human) (P22681 47-435): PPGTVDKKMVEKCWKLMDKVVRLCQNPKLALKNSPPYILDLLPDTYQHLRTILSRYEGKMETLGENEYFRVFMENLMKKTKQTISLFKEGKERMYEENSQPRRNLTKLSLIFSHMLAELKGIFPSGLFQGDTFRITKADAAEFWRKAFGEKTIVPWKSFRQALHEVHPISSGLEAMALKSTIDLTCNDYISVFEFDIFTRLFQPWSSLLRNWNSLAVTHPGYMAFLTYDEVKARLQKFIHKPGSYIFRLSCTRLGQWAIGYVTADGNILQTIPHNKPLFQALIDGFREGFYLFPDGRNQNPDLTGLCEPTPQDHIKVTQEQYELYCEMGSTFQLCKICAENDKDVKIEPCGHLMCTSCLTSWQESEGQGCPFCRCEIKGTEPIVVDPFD

Sequence of GST-CBL47–435 WT (human) (P22681 47-435): as above
Sequence of UbcH5B (from UniProt P62837 1-147) (enzyme; other documents disagree on this pair) (P62837 whole entry): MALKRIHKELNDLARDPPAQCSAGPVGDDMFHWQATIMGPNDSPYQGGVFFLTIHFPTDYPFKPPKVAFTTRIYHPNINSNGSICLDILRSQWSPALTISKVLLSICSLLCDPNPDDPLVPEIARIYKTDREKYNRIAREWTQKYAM
Sequence of GST-CBL47–435 Y368F pY371 (human) (P22681 47-435 Y368F): as the sequence (P22681 47-435) above, with Y322F counted along it
Sequence of GST-CBL47–435 Y371F (human) (P22681 47-435 Y371F): as the sequence (P22681 47-435) above, with Y325F counted along it
Sequence of GST-CBL47–435 Y368F (human) (P22681 47-435 Y368F): as the sequence (P22681 47-435) above, with Y322F counted along it
Sequence of UbcH5B (from UniProt P62837 1-147) (enzyme) (P62837 whole entry): as the sequence (P62837 whole entry) above
Sequence of GST-CBL47–435 M222E (human) (P22681 47-435 M222E): as the sequence (P22681 47-435) above, with M176E counted along it

Kd (GST-CBL47–435 WT (human) [1]) | Kd [2] | Kd (GST-CBL47–435 WT (human) [3]) | Kd [4] | Kd [5] | Kd [6] | Km (UbcH5B~Ub) of CBL47–435 pY371 autoubiquitination, Michaelis-Menten, 22°C (CBL47–435 pY371 (human)) | Substance
17 µM | 11 µM | – | – | – | – | – | ZAP-70 peptide
311 µM | 28 µM | 244 µM | 250 µM | 138 µM | 70 µM | – | UbcH5B (from UniProt P62837 1-147) (enzyme; other documents disagree on this pair)
– | – | – | – | – | – | 6.5 μM | UbcH5B (from UniProt P62837 1-147) (enzyme)
